Our source for the response values is article PMC5624674 (2017).

The chains are these.
B1: λCI-ZipACTD (residues 186–328) [E. coli] / α-FtsZ fusion protein (wild-type E. coli FtsZ) [E. coli] (parent complex)
chain 1: not shown
chain 2: MFEPMELTNDAVIKVIGVGGGGGNAVEHMVRERIEGVEFFAVNTDAQALRKTAVGQTIQIGSGITKGLGAGANPEVGRNAADEDRDALRAALEGADMVFIAAGMGGGTGTGAAPVVAEVAKDLGILTVAVVTKPFNFEGKKRMAFAEQGITELSKHVDSLITIPNDKLLKVLGRGISLLDAFGAANDVLKGAVQGIAELITRPGLMNVDFADVRTVMSEMGYAMMGSGVASGEDRAEEAAEMAISSPLLEDIDLSGARGVLVNITAGFDLRLDEFETVGNTIRAFASDNATVVIGTSLDPDMNDELRVTVVATGIGMDKRPEITLVTNKQVQQPVMDRYQQHGMAPLTQEQKPVAKVVNDNAPQTAKEPDYLDIPAFLRKQAD

Variants of B1 are the subject of this assay. The experiment in a line: bacterial two-hybrid β-galactosidase assay; 25 μM IPTG; parent: 720; read off a plot.
As for chain 2 S177P, the response is ~790 Miller Units. On to chain 2 D180N, for which the response is ~770 Miller Units. Then chain 2 F182S, with ~770 Miller Units; and chain 2 L179R, with ~880 Miller Units; and chain 2 L169P, with ~790 Miller Units.
